# Measurements taken from patent publication US20190153103A1.
# Target: recombinant human BMPR-1A/ALK-3-Fc Chimera (R&D systems Catalog: 315-BR) (human) (UniProt P36894)
# Experiment: ELISA
# Chain of recombinant human BMPR-1A/ALK-3-Fc Chimera (R&D systems Catalog: 315-BR) (human) (P36894 24-152 limits assumed, change not shown): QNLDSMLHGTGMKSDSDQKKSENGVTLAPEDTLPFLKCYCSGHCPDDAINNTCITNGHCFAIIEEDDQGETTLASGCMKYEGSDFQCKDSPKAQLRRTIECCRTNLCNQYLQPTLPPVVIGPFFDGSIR
row,Binder,ELISA
1,"SC91.111 (antibody, V domains shown) VH: QIQLVQSGPELKKPGETVKISCKASGYTLTTYGMNWVKQAPGKGLKWMGWINTYSGVPAYADDFKGRFAFSLETSASTAYLQINNFKNEDTATYFCARSELRNWYFDVWGTGTTVTVSS VL: SFVMTQTPKFLLVSAGDRVTITCKASQNMGHNVAWYQQKPGQSPKLLIYYASNRYTGVPDRFTGSGYGTDFTFTISTVQAEDLAVYFCQQDYSSPFTFGSGTKLEIK",0.077
2,"SC91.155 (antibody, V domains shown) VH: QIQLVQSGPELKKPGETVKISCKASGYTFTTYGMNWVKQAPGKGLKWMGWINSYSGVPAYADDFKGRFAFSLETFASTAYLQINNLRDEDTATYFCARSELRNWYFDVWGTGTTVTVSS VL: SFVMTQTPKFLLVSAGDRVTITCKASQNLGNDVAWYQQKPGQSPRLLIYFASNRYTGVPDRFTGSGYGTDFTFTISTVQAEDLAVYFCQQDYSSPFTFGSGTKLEIK",0.059
3,"SC91.149 (antibody, V domains shown) VH: QVQLLQPGAELVKPGSSVKVSCKASGYTFTNYWMQWVKQRPGQGLEWIGEIDPSDTYTLYNQKFKGKATLTVDTSSSTAYMQLSSLTSEDSAVYYCARFGYYVDYWGQGTTLTVSS VL: DVVMTQTPLSLPVSLGDQASISCRSSQSLVHSTGNTYFHWYLQKPGQSPELLIYKVSNRFSGVPDRFRGSGSGTDFTLKISRVEAEDLGVYFCSQSTHVPFTFGSGTKLEIK",0.066

# The remaining lines, values ahead:
row,ELISA,Binder
1,0.061,"SC91.160 (antibody, V domains shown) VH: QIQLVQSGPELKKPGETVKISCKASGYTFTTYGMNWVKQAPGKGLKWMGWINTYSGVPSSADDFKGRFAFSLETSASTAYLLINNLKNEDTATYFCARSELRNWYFDVWGTGTTVTVSS VL: SFVMTQTPKFLLVSAGDRVTITCKASQNMGHDVAWYQQKPGQSPKLLIYSASNRYTGVPDRFTGSGYGTDFTFTISTVQAEDLAVYFCQQDYSSPFTFGSGTKLEMK"
2,0.092,"SC91.187 (antibody, V domains shown) VH: QVQLQQPGPEFVKPGASVKLSCKASGYTFTSYWVQWVKQRPGQGLEWIGEIDPSDNYTLYNQNFKGKATLTVDTSSSTAYMQLSSLTSEDSAVYYCARFGFYVDYWGQGTTLTVSS VL: DVVMTQTPLSLPVSLGEQASISCRSSQSLVHSTGNTYLHWYLQKPGQSPKLLIYKVSNRFSGVPDRFSGSGSGTDFTLKISRVEAEDLGVYFCSQSTHVPFTFGSGTKLEIK"
3,0.062,"SC91.172 (antibody, V domains shown) VH: QVQLQQPGADLVKPGTSVKLSCKASGYTFTSYWMQWVKQRPGQGLEWIGEIDPSDTYTMYNQKFKGKATLTVDTSSSTAYMQLSSLTSEDSAVYYCARFGYYVDYWGQGTTLTVSS VL: DVVMTQTPLSLPVSLGDQASISCRSSQSLVHSTGNTYLHWYLQKAGQSPKLLIYKVSNRFSGVPDRFSGSGSGTDFTLKISRVEAEDLGVYFCSQSTHVPFTFGSGTKLEIK"
